# US20110092681A1
# “And” between values parts separate entries of the source, which are not always exact repeats. Identical values can stand only once.
# Molecular target: rFVIII (recombinant Factor VIII) (UniProt P00451)
# Assay: ELISA chromogenic assay (ECA): rFVIII incubated with rVWF, complex captured on anti-VWF antibody, bound FVIII read by chromogenic assay
substance,measurement,value
human recombinant VWF (rVWF) (from UniProt P04275 764-2813),FVIII binding (%),51.7% and 64.6% and 63.1%
